# Experimental data reported in paper PMC11861162.
# Target: SHIVC109P7 gp140 protein (soluble Env) (HIV-1 subtype C (Env of SHIVC109P7))
# Assay: native gel or EMSA
substance,measurement,value
SHIVC109P7 gp140 protein (soluble Env) (domain or fragment),stoichiometry N,3
